{"source": "paper PMC10724265", "about": "(2023)", "key": {"LC3B [1]": {"molecular_target": "T1, LC3B (UniProt Q9GZQ8 1-120)", "test": "ITC; phosphorylated LIR peptide"}, "LC3B [2]": {"molecular_target": "T1, LC3B", "test": "ITC"}}, "note": "Where no end group is shown, it is not given here."}
{"binder": "LDTDAEGDDFELLDQSELSQ (also: phosphorylated close to the LIR motif, residues not given here)", "note": "[synthetic FAM134C-LIR peptide, phosphorylated form]", "values": [{"measurement": "Kd", "setting": "LC3B [1]", "result": 0.18, "unit": "µM"}]}
{"binder": "LDTDAEGDDFELLDQSELSQ (synthetic peptide, non-phosphorylated; the exact peptide limits are not printed in the text (figure/supplement); limits taken as the UniProt LIR motif 445-450 plus 7 flanking residues on each side; terminal chemistry unknown)", "note": "[synthetic FAM134C-LIR peptide, non-phosphorylated form]", "values": [{"measurement": "Kd", "setting": "LC3B [2]", "result": 1.03, "unit": "µM"}]}
